# Tests used:
# [1] = biological target: βAPP-C100 binding site on NGF-treated PC12 cells; experiment: competition with 35S-βAPP-C100 for binding to NGF-treated PC12 cells
# [2] = biological target: βAPP-C100 binding site on NGF-treated PC12 cells; experiment: inhibition of 35S-βAPP-C100 binding to NGF-treated PC12 cells by unlabeled βAPP-C100
# [3] = biological target: βAPP-C100 binding site on NGF-treated PC12 cells; experiment: saturation binding of 35S-βAPP-C100 to NGF-treated PC12 cells, filtration, 4° C.
Substance,IC50 [1],times less potent than the native form [1],IC50 [2],Kd [3]
Phe687-βAPP-C100 (from UniProt P05067-4) (ligand),> 14 nM,> 20 times,–,–
flag-βAPP-C100 (from UniProt P05067-4) (ligand),–,–,1.7 nM,0.81 nM
